In patent publication US11505811B2, “Method for the preparation of 2,4-dihydroxybutyrate” (ADISSEO FRANCE S.A.S., priority 2012, dated 2022):

What was measured:
CC(=O)C(=O)O = experiment: OHB/pyruvate reductase assay, Oc-LdhA; assay type: biochemical, Oryctalagus cuniculus; conditions: other: pH 7, 37° C., 0.25 mM NADH
Text: (§1) The genes coding for (L)-malate dehydrogenase in Escherichia coli, Ec-mdh (SEQ ID NO: 1), (D)-lactate dehydrogenase in E. coli, Ec-ldhA (SEQ ID NO: 3), (L)-lactate dehydrogenase of Lactococcus lactis, Ll-ldhA (SEQ ID NO: 5), (L)-lactate dehydrogenase of Bacillus subtilis, Bs-ldh (SEQ ID NO: 7), (L)-lactate dehydrogenase of Geobacillus stearothermophilus, Gs-ldh (SEQ ID NO: 9), the two isoforms of the (L)-lactate dehydrogenase of Oryctalagus cuniculus, Oc-ldhA (SEQ ID NO: 11 and SEQ ID NO: 13), were amplified by PCR using the high-fidelity polymerase Phusion™ (Fermentas) and the primers listed in Table 1. Genomic DNAs of E. coli MG1655, L. lactis IL1403, and B. subtilis strain 168 were used as the template. The genes Oc-ldhA, and Gs-ldh were codon-optimized for expression in E. coli and synthesized by MWG Eurofins. The primers introduced restriction sites (Table 1) upstream of the start codon and downstream of the stop codon, respectively, facilitating the ligation of the digested PCR products into the corresponding sites of the pET28a+ (Novagen) expression vector using T4 DNA ligase (Fermentas). Ligation products were transformed into E. coli DH5a cells (NEB). […]

O=C(O)C(=O)CCO = experiment: OHB/pyruvate reductase assay, Oc-LdhA; assay type: biochemical, Oryctalagus cuniculus; conditions: other: pH 7, 37° C., 0.25 mM NADH
Text: as §1

Oryctolagus cuniculus (printed: Oryctalagus cuniculus) (L)-lactate dehydrogenase Oc-LdhA, SEQ ID NO: 12 and SEQ ID NO: 14 (two isoforms) (Oryctolagus cuniculus)
Km (CC(=O)C(=O)O): 1.5 mM | Km (O=C(O)C(=O)CCO): 13 mM
